Laboratory results taken from the supplement of paper PMC9170038.

Key:
MS2 coat protein [1] = assay: apparent KD of MS2 coat protein, switch OFF state (with FMN for OFF switches, without FMN for ON switches); designed switch direction (-1 OFF switch, 1 ON switch): -1; higher = weaker reporter binding; settings: FMN input: 0 or 200 uM; Eterna round: R93 (includes R88 designs)
In short: (§1)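 Each design's apparent KD comes from the median of binding-curve fits to its normalised clusters. Those clusters carried RNA switches transcribed on-chip from Illumina sequencing clusters. SNAP-549-labelled MS2 coat protein was titrated onto them in twofold steps (0.7 or 1.5 nM to 3 µM; per step 0.8–1.5 h down to 10–20 min). Conditions were 100 mM Tris-HCl pH 7.5, 80 mM KCl, 4 mM MgCl2, without or with constant ligand.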

MS2 coat protein [2] = assay: apparent KD of MS2 coat protein, switch ON state; designed switch direction (-1 OFF switch, 1 ON switch): -1; higher = weaker reporter binding; settings: FMN input: 0 or 200 uM; Eterna round: R93 (includes R88 designs)
In short: as §1

| Sequence | apparent KD of MS2 coat protein (MS2 coat protein [1]) [nM] | apparent KD of MS2 coat protein (MS2 coat protein [2]) [nM] |
| --- | --- | --- |
| AAAAAACAUGAGGAUCACCCAUGUGAGGAUAUGAAAAUACUAAGACAACUGUAAUCAAUCAGAAGGCACAACAA [JR_Exc--1_Sub1208] | 19.6 | 18.8 |
| AAAAAGUGAGGAUAUUCGGAAGGGAAAGCGCAAACCCAACCGAAGAAGGCACAUGAGGAUCACCCAUGUGAAAA [Ecls4-III 65% - Early + late G segment 1] | 33 | 21.2 |
| GAAAAGUCAGGAUAUGCGAAGGCGUCUGAUAGACGAGGCUAGCAGAAGGGACAUGAGGAUCACCCAUGUGAAAG [Mat - Exclusion 4 - Eli mod - D87] | 128 | 54.6 |
| AACAGUACAGGAUAUACAUGAGGAUCACCCAUGUGAGUUUUAAAAGGCGUACCUAAAAGUAGAAGGGUACUGGA [JL Maslow Revisted mod 20] | 44.2 | 24.3 |
| AAUAGUGGAGGAUAUACAUGAGGAUCACCCAUGUAGAAAGGAAGUGUAUAUAUGGCGUGUAGAAGGCCAAAUAA [Mai Tai 3 ala Nando] | 30.3 | 32.3 |
| AAAAAGGGAGGAUAUACGAAAUAGGGAAACCUAAAAAAGGGACAUGAGGAUCACCCAUGUAGAAGGCCCAAGAA [Clint Eastwood 64% 6] | 223 | 39 |
| AAGAACGCAGGAUAUACAAAAUAAAAGAAAAGAAAGAAAGAACAUGAGGAUCACCCAUGUAGAAGGGCGAAGAA [Sewadjkare] | 49.5 | 52.2 |
| AAGAAGUGAGGAUAUACAUGAGGAUCACCCAUGUAAAAGAAAGAGGGAAAAGAGAAAAGUAGAAGGCACAAGAA [Weserkare-meryamun Ptolemy II Philadelphos] | 33.7 | 35.6 |
| CUUAUGUGAGGAUAUCAGUAGUAAAAAAAAAAAAUUACUACUGAGAAGGCACAUGAGGAUCACCCAUGUGCAUU [EX4 322: Super Stable 22] | 38.8 | 30.3 |
| AAAAAACAUGAGGAUCACCCAUGUGAGGAUAUCCUGAAGGGAAUAAAAUAACUCGAAAGGAGAAGGCGCAAAAA [Ex 1 May 32] | 33 | 35.2 |
| AAACCACAUGAGGAUCACCCAUGUAAGGAUAUGAACGAAAAUAAAUAAAAAUAAAAGUUCAGAAGGUACAAAAA [66%, Wbt, 22] | 24.3 | 26.3 |
| AGCUAGUCAGGAUAUACGAACAGGUCAAAAGACGUAAGGGAACAUGAGGAUCACCCAUGUAGAAGGGACUAGCA [Diamond 52] | 84.3 | 32.9 |
| AAAAAGCUAGGAUAUACAUGAGGAUCACCCAUGUAAAAAAAAAAAAAGGGAAAAAAAAGUAGAAGGAGCAAAAA [Merankhre Mentuhotep VI] | 26 | 18.4 |
| GCUUGGCAAGGAUAUACAUGAGGAUCACCCAUGUGAGAGAAAAAAGUGAGAAAGAAAAGUAGAAGGUGCUGAGG [salish99-ex3-109] | 82.2 | 42.6 |
| UACAUACAUGAGGAUCACCCAUGUCAGGAUAUGUGCUCAGUGAAAAACAAAGAAACAAGCAGAAGGGACACUAA [JR_Exc001_Sub203] | 37.5 | 41.8 |
| AAAAAGUCAGGAUAUGCGAAGGCGUCUGAUAGACGAGGCUAGCAGAAGGGACAUGAGGAUCACCCAUGUAAAAA [Mat - Mod of Nando] | 45 | 50.5 |
| CUGGAGUCAGGAUAUACGAACAUGUCGCCAGAUGUCAAGGUACAUGAGGAUCACCCAUGUAGAAGGGAGGAGAA [salish99-Ex2-33] | 84.8 | 95.2 |
| CAAAAACAUGAGGAUCACCCAUGUGAGGAUAUACGAAAGUAGAAGGCACUAAAACAAAACAGAAGGACAAAACA [Meechl Ex1 R2 m3] | 24.6 | 17.9 |
| AAAAAGGCAGGAUAUACAUGAGGAUCACCCAUGUAAAAAAAAAAAAAAGGGAAAAAAAGUAGAAGGGCCAAAAA [Along] | 53.4 | 31.1 |
